Results on 1 molecule are retold here after patent publication US20260209387A1, “SINGLE-DOMAIN ANTIBODY FOR INHIBITION OF NEUTROPHIL ELASTASE ACTIVITY” (UNIVERSITE DE LIEGE, priority 2023, published 2026).

Series [1] concerns the target T1, hNE (Homo sapiens, UniProt P08246).
T1 construct: purchased Elastin Products Company (EPC)
T1 sequence (P08246 30-247): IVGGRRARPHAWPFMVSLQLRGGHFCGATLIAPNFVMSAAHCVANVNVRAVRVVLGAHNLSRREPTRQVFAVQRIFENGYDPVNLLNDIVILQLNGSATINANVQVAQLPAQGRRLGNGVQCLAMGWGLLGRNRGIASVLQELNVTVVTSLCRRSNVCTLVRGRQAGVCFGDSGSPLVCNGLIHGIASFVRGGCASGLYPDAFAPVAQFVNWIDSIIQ
The experiment in a line: hNE inhibition, hydrolysis of elastin (Elastin-CongoRed). It counts as biochemical. How it is done: 1.6.2. Inhibition of the hydrolysis of elastin, a natural substrate of hNE. […] The samples were incubated for 16 hours at 37° C. with orbital shaking (900 rpm). The samples were then centrifuged at 90′000 g for 30 minutes at 4° C. to separate the insoluble Elastin from the digested and soluble molecule fragments. The soluble fraction was transferred into a 384-wells clear plate and the absorbance of Congo-red was measured at 495 nm in a SpectraMax M2e Microplates Reader (Molecular Devices, California, USA). The absorbance of the samples at different inhibitor: hNE molar ratios was compared to that measured in the absence of inhibitor, to determine the residual hNE activity. A sample of Elastin-Congo red without elastase was used as blank.

In series [2] the target is T2, human cathepsin G (hCG) (Homo sapiens, UniProt P08311).
T2 construct: purchased Calbiochem
T2 sequence (P08311 21-244): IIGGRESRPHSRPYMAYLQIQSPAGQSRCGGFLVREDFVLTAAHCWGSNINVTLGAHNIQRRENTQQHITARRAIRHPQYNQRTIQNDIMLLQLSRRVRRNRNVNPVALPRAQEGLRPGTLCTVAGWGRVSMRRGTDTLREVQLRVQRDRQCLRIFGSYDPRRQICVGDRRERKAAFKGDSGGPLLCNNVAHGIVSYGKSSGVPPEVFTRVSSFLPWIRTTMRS
The experiment in a line: BLI binding to other serine proteases: hCG. The note with it: 50 nM protease. How it is done: (§1) The specificity of NbE201 for hNE was also investigated by BLI. Biotinylated NbE201 (10 μg/mL) was immobilized on streptavidin biosensors (SA, Sartorius) following provider's indications. The biosensors were then immersed in a 50 nM solution of a serine protease. The proteases tested were human cathepsin G (hCG), human proteinase 3 (hPR3), mouse pancreatic elastase (mPE), mouse neutrophil elastase (mNE) and porcine pancreatic elastase (pPE). hNE was used a positive control. The association and dissociation were measured for 70 s and 320 s respectively, in kinetic buffer (KB, Sartorius). The experiments were carried out at 30° C. in 384-wells black-bottom microplates in polypropylene (Greiner Bio-One, Belgium) and with orbital agitation (1000 rpm).
Background: In BLI a coated tip is dipped into the sample, and binding shifts an interference pattern.

Series [3] concerns the target T1, hNE. Nature of the series: Competitive binding by BLI with AAT, EI3 and Nb-H7S-Nter-P1. How it is done: The biotinylated NbE201 (10 μg/ml in KB buffer) was immobilized on streptavidin biosensors (SA, Sartorius) following the provider's indications. A biosensor quenching step with biocytin 1 μg/mL was performed. […] The association was measured for 280 s in kinetic buffer (KB buffer, Sartorius). The experiments were carried out at 30° C. in 384-wells black-bottom microplates in polypropylene (Greiner Bio-One, Belgium) and with agitation (1000 rpm).

Series [4] concerns the target T1, hNE. Nature of the series: Affinity of NbE201 for hNE by BLI. It counts as binding. How it is done: The affinity of NbE201 for hNE and mNE was measured by BLI with the Octet HTX machine using various settings. […] For hNE, the biotinylated NbE201 (0.5 μg·mL^−1) was immobilized on streptavidin biosensors (SA, Sartorius) following the provider's indications. Then, the biosensors were immersed in a solution of hNE at different concentrations (25-6.25-3.125-1.5163-0.753 nM). Association and dissociation kinetics were measured for 180 s and 300 s respectively, in 10×KB buffer. All the experiments were carried out at 30° C. in 96-wells or 384-wells black-bottom microplates in polypropylene (Greiner Bio-One, Belgium) and with orbital agitation (1500 rpm). The sensorgrams obtained were fitted globally to a 1:1 model to derive the rate constants for association (kon) and dissociation (koff) and the equilibrium dissociation constant (KD=koff/kon). […] were carried out. The error on KD was calculated using the following equation: […]

For series [5], the target named is T3, porcine pancreatic elastase (pPE) (Sus scrofa, UniProt P00772).
T3 construct: purchased Sigma
T3 sequence (P00772 27-266): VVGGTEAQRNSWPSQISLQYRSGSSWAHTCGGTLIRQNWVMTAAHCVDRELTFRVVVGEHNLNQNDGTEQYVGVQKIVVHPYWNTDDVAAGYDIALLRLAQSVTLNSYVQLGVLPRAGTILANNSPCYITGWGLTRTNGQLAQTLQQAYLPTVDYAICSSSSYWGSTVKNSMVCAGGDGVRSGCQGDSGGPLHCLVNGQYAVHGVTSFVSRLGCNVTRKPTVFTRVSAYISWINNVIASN
The experiment in a line: BLI binding to other serine proteases: pPE. The following applies: 50 nM protease. How it is done: as §1

Series [6] is described as follows: Heat-induced unfolding by far UV-CD at 206 nm. The note with it: far UV-CD 206 nm; average of three batches; pH 7. It counts as physicochemical. The protocol: 1.12.1. Preparation of the samples and measurements. Samples of NbE201 in 0.05 M NaP buffer pH 7 were prepared at a protein concentration of 0.2 mg mL-1. All the experiments were carried out in 1 mm quartz cell and a JASCO J-810 CD spectrophotometer equipped with a Peltier cell-holder. Mineral oil was added on the top of the sample to avoid sample evaporation. The CD spectrum of the native and denatured states of the protein were recorded from 190 nm to 260 nm at 25° C. and at 97° C. 61 data points were recorded with a 1 nm data interval, a data pitch of 0.1 nm, 2 s integration time, a bandwidth of 1 nm and a scanning speed of 50 nm/min. Heat-induced unfolding was monitored by far UV-CD at 206 nm. […] Data were acquired with a reading frequency of 0.05 s^−1 using a 4 s integration time and a 1 nm bandwidth. […]
1.12.2. […] The transition curves obtained were analyzed based on a two-state (N ? U) model and Equation 1 where x is the temperature during the analysis and a=−(ΔHm (1−x/Tm))/RT (doi: 10.1016/j.jmb.2008.11.046), and yobs is the CD signal at 206 nm at a given temperature (x), and YN and YU are the values of these signals for the native and denatured states, respectively at 273K. p and q are the slopes of the pre- and post-transition baselines, respectively, R is the gas constant, and T is the absolute temperature. […]

B1: NbE201: anti-hNE ISVD (VHH/nanobody) from immunized lama, amino acid sequence SEQ ID NO: 4 (protein)
VHH: QVQLQESGGGLVQAGGSLRLSCVVPGRTISLYRMGWFRQAPGKEREFVAGINWSGDMTDYVDSVKGRFTISRDNAKNTVYLEMNSLKPEDTAIYYCTADPKLLPLADSSYGYWGQGTQVTVSS
Take B1: the “hNE residual activity, elastin hydrolysis” value in series [1] ([inhibitor]:[hNE] = 50) is given as “almost zero”. Further, the “inhibition of hNE activity, elastin hydrolysis” value in series [1] ([inhibitor]:[hNE] ratio 15) is 80%. In addition, in series [2], the “binding to hCG by BLI” value is “does not bind to the other proteases”. Also, the “binding of hNE in complex with AAT to immobilized NbE201” value in series [3] (hNE 250 nM pre-incubated with AAT 1.5 μM) is “does not bind to NbE201”. For the same molecule, the “binding of hNE pre-incubated with EI3 (MeOSuc-AAPV-CMK) to immobilized NbE201” value in series [3] (hNE 250 nM, EI3 15 μM) is “unable to bind to NbE201”. In addition, the “binding of hNE pre-incubated with cAb-H7S-Nter-P1 to immobilized NbE201” value in series [3] (hNE 250 nM, cAb-H7S-Nter-P1 1.5 μM) was “unable to bind to NbE201”. In series [4] (hNE vs mNE), the “affinity for hNE relative to mNE” value was “about 10 times”. For the same molecule, in series [4] (hNE, BLI), the koff is reported as 3.2 ± 0.2 · 10^−3 s^−1 and the kon is on record as 2.6 ± 0.9 · 10^6 M^−1 s^−1. The “binding to pPE by BLI” value in series [5] is reported as “does not bind to the other proteases”. The “apparent temperature of unfolding (Tm^app)” value in series [6] was 70.7±1.5 °C.
